Target: Jak2 (UniProt O60674)
Assay: phosphorylation enrichment, bacterial display (enrichment ratio); higher = better substrate or ligand; peptides without Tyr show the background
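Also: 11-residue human phosphosite peptides and single-mutation variants displayed on the E. coli surface, counted by deep sequencing, each peptide's frequency after selection divided by its frequency in the unselected input library; frequency after pTyr selection over input frequency; kinase dosed for 20-30% of maximal phosphorylation in three min.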

Sequence of Jak2 (O60674 whole entry, looked up): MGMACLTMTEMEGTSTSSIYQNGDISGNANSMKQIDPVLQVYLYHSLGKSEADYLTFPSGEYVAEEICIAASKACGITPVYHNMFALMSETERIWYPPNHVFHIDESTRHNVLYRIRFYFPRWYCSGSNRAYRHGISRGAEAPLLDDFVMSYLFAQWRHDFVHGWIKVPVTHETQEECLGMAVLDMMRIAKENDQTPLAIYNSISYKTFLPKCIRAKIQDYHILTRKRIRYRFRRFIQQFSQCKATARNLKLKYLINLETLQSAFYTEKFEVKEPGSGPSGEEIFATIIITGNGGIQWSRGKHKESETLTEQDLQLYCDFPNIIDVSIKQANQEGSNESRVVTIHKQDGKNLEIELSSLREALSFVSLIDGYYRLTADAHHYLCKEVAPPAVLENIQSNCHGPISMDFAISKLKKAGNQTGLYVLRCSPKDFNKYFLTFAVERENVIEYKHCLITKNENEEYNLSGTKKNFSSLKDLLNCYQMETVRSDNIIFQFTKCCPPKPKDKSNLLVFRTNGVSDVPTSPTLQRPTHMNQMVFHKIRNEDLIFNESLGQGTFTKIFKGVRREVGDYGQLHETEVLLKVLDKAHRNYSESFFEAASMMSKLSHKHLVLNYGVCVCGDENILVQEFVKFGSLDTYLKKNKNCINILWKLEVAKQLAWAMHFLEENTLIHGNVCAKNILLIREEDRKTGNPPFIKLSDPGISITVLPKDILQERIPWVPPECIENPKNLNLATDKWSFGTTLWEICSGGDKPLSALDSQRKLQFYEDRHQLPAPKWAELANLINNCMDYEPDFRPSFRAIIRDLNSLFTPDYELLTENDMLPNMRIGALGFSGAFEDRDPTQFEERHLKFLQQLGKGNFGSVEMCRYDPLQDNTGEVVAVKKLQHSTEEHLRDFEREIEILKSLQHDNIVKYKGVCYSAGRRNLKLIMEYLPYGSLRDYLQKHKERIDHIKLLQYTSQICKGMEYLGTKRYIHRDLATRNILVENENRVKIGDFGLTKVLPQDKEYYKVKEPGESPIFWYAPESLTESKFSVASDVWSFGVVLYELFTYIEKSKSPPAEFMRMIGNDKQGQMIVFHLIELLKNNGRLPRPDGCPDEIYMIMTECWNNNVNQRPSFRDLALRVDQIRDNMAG

Sequence	phosphorylation enrichment
LFQAKYQIRFR [CRLF1_Y272_YF]	1.64
ETALHYIHDGI [GATD3A_Y250]	0.775
ECKFLYSRKEG [PTPN11_Y263_L261F]	0.849
GPGLVYRVANK [FLNB_Y1833_G1834R]	0.688
RPSELYFSKIS [SMG1_Y2253_G2258S_YF]	1.06
VRSNHYDPEED [TJP1_Y1346]	0.974
TDDMRYPMKSE [TGDS_Y302_N298D]	0.694
ITNLLYHVVGG [GBA_Y412_W417G]	2.67
VKANTYENYWP [GATM_Y100_K102N]	0.994
GETEQYVGGGG [FAT4_Y4980_A4977T]	0.66
IYQASYYRRGD [LTK_Y676_R673Q]	0.528
RPAPQYPHQVP [ADAM12_Y895]	1.36
RTLTHYKSAVK [ASNS_Y555]	0.801
EWKQNYEESQS [MYH7_Y1460_K1459N]	1.32
SSPQLYLVPFL [TAF4_Y652_P651L]	7
REVPVYTFSEP [FAM120B_Y368_D370Y_YF]	1.1
VDGSVYKLHPS [GCK_Y413]	0.735

Sequence	phosphorylation enrichment
QRTMKYTTATG [MCCC1_Y41]	0.449
IALSKYGRVKR [FGF6_Y186]	0.57
KFEDVYVRICL [B3GALNT1_Y269_G271R]	1.28
KIEGIYARDET [RPL35A_Y34_V33I]	0.663
NHRNQYQALKP [CLSPN_Y887]	0.463
IGMLIYFARKA [VCAM1_Y718_I716L]	0.703
VKANTYENFWP [GATM_Y100_K102N_YF]	0.954
NTFEKYLGEEF [TF_Y669_YF]	0.922
PDGHEYIYVDP [PDGFRA_Y572]	1.81
PGPQSYPIVTG [PAX5_Y299]	0.533
GDAMLYFPSVS [GPR143_Y177_A173D_YF]	1.92
KTDKKYLMIEE [BAG3_Y451]	0.96
DKEKWYPLGNS [PIK3C2G_Y1438]	0.681
NFSKMYCNPDA [KNL1_Y489_A486S_YF]	0.894
NTGDDYDLFGG [PTPN11_Y63_Y62D_YF]	1.05
HLQDEYDFKCK [STAT1_Y170_D165H]	1.5

Target: MERTK (UniProt Q12866)
Assay: as above

Sequence of MERTK (Q12866 whole entry, looked up): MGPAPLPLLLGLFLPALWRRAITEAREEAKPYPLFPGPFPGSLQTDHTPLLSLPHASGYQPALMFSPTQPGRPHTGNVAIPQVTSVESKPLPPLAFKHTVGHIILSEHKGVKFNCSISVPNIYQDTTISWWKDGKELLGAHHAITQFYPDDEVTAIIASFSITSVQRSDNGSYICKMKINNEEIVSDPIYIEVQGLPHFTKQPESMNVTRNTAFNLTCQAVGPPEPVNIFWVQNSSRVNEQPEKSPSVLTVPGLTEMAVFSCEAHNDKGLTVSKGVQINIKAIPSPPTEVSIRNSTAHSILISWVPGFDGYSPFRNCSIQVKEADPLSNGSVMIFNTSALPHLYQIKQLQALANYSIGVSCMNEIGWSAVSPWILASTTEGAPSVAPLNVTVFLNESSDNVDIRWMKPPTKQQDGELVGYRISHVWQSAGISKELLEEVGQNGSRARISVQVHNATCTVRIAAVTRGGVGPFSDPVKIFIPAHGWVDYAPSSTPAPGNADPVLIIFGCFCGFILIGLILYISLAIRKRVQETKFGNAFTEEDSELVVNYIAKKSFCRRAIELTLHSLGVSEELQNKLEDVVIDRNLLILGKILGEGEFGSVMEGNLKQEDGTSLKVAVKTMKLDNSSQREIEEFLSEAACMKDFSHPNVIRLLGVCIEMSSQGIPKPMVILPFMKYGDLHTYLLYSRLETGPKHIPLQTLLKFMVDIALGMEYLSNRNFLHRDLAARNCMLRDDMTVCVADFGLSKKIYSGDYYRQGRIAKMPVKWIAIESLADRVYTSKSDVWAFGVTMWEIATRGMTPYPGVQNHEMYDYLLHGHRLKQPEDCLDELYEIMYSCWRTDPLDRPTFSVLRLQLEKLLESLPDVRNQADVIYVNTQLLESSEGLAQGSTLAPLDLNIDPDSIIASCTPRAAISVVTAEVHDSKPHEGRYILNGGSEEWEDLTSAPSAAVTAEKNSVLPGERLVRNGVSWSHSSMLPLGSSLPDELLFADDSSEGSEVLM

Sequence	phosphorylation enrichment
LFQAKYQIRFR [CRLF1_Y272_YF]	0.868
ETALHYIHDGI [GATD3A_Y250]	0.431
ECKFLYSRKEG [PTPN11_Y263_L261F]	0.436
GPGLVYRVANK [FLNB_Y1833_G1834R]	0.399
RPSELYFSKIS [SMG1_Y2253_G2258S_YF]	0.886
VRSNHYDPEED [TJP1_Y1346]	0.526
TDDMRYPMKSE [TGDS_Y302_N298D]	0.488
ITNLLYHVVGG [GBA_Y412_W417G]	7.37
VKANTYENYWP [GATM_Y100_K102N]	2.41
GETEQYVGGGG [FAT4_Y4980_A4977T]	0.414
IYQASYYRRGD [LTK_Y676_R673Q]	6.37
RPAPQYPHQVP [ADAM12_Y895]	0.718
RTLTHYKSAVK [ASNS_Y555]	0.702
EWKQNYEESQS [MYH7_Y1460_K1459N]	0.497
SSPQLYLVPFL [TAF4_Y652_P651L]	7.97
REVPVYTFSEP [FAM120B_Y368_D370Y_YF]	3.58
VDGSVYKLHPS [GCK_Y413]	0.424

Sequence	phosphorylation enrichment
QRTMKYTTATG [MCCC1_Y41]	0.524
IALSKYGRVKR [FGF6_Y186]	0.438
KFEDVYVRICL [B3GALNT1_Y269_G271R]	0.436
KIEGIYARDET [RPL35A_Y34_V33I]	0.413
NHRNQYQALKP [CLSPN_Y887]	0.531
IGMLIYFARKA [VCAM1_Y718_I716L]	0.496
VKANTYENFWP [GATM_Y100_K102N_YF]	3.58
NTFEKYLGEEF [TF_Y669_YF]	0.379
PDGHEYIYVDP [PDGFRA_Y572]	1.46
PGPQSYPIVTG [PAX5_Y299]	0.586
GDAMLYFPSVS [GPR143_Y177_A173D_YF]	0.726
KTDKKYLMIEE [BAG3_Y451]	0.424
DKEKWYPLGNS [PIK3C2G_Y1438]	0.292
NFSKMYCNPDA [KNL1_Y489_A486S_YF]	0.524
NTGDDYDLFGG [PTPN11_Y63_Y62D_YF]	0.412
HLQDEYDFKCK [STAT1_Y170_D165H]	0.884

Test system: c-Abl (mouse)
Assay: as above

Sequence	phosphorylation enrichment
LFQAKYQIRFR [CRLF1_Y272_YF]	1.31
ETALHYIHDGI [GATD3A_Y250]	0.659
ECKFLYSRKEG [PTPN11_Y263_L261F]	0.639
GPGLVYRVANK [FLNB_Y1833_G1834R]	0.716
RPSELYFSKIS [SMG1_Y2253_G2258S_YF]	0.834
VRSNHYDPEED [TJP1_Y1346]	0.688
TDDMRYPMKSE [TGDS_Y302_N298D]	0.651
ITNLLYHVVGG [GBA_Y412_W417G]	1.12
VKANTYENYWP [GATM_Y100_K102N]	0.801
GETEQYVGGGG [FAT4_Y4980_A4977T]	0.624
IYQASYYRRGD [LTK_Y676_R673Q]	11.5
RPAPQYPHQVP [ADAM12_Y895]	1.01
RTLTHYKSAVK [ASNS_Y555]	0.563
EWKQNYEESQS [MYH7_Y1460_K1459N]	0.967
SSPQLYLVPFL [TAF4_Y652_P651L]	13.2
REVPVYTFSEP [FAM120B_Y368_D370Y_YF]	1.72
VDGSVYKLHPS [GCK_Y413]	0.614

Sequence	phosphorylation enrichment
QRTMKYTTATG [MCCC1_Y41]	0.727
IALSKYGRVKR [FGF6_Y186]	0.552
KFEDVYVRICL [B3GALNT1_Y269_G271R]	1.03
KIEGIYARDET [RPL35A_Y34_V33I]	0.493
NHRNQYQALKP [CLSPN_Y887]	0.476
IGMLIYFARKA [VCAM1_Y718_I716L]	0.508
VKANTYENFWP [GATM_Y100_K102N_YF]	0.904
NTFEKYLGEEF [TF_Y669_YF]	0.641
PDGHEYIYVDP [PDGFRA_Y572]	2.84
PGPQSYPIVTG [PAX5_Y299]	0.5
GDAMLYFPSVS [GPR143_Y177_A173D_YF]	0.674
KTDKKYLMIEE [BAG3_Y451]	0.807
DKEKWYPLGNS [PIK3C2G_Y1438]	0.488
NFSKMYCNPDA [KNL1_Y489_A486S_YF]	0.699
NTGDDYDLFGG [PTPN11_Y63_Y62D_YF]	0.826
HLQDEYDFKCK [STAT1_Y170_D165H]	0.776

Target: Fyn (UniProt P06241)
Assay: as above

Sequence of Fyn (P06241 whole entry, looked up): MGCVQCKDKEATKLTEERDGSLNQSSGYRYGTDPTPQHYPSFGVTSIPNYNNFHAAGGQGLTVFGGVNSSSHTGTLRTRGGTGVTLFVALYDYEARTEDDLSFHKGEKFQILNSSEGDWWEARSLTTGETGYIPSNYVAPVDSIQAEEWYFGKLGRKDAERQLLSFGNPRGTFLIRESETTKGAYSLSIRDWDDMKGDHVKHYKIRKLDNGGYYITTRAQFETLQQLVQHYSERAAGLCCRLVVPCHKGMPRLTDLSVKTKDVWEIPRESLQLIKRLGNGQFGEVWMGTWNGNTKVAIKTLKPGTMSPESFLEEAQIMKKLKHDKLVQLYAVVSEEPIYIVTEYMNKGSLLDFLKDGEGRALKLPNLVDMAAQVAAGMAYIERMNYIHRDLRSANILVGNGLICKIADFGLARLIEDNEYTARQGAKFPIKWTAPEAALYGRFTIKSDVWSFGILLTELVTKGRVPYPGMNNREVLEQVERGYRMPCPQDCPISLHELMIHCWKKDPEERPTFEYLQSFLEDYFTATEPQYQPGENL

Sequence	phosphorylation enrichment
LFQAKYQIRFR [CRLF1_Y272_YF]	0.643
ETALHYIHDGI [GATD3A_Y250]	0.433
ECKFLYSRKEG [PTPN11_Y263_L261F]	0.537
GPGLVYRVANK [FLNB_Y1833_G1834R]	0.485
RPSELYFSKIS [SMG1_Y2253_G2258S_YF]	1.4
VRSNHYDPEED [TJP1_Y1346]	0.568
TDDMRYPMKSE [TGDS_Y302_N298D]	0.43
ITNLLYHVVGG [GBA_Y412_W417G]	5.17
VKANTYENYWP [GATM_Y100_K102N]	2.59
GETEQYVGGGG [FAT4_Y4980_A4977T]	0.475
IYQASYYRRGD [LTK_Y676_R673Q]	7.6
RPAPQYPHQVP [ADAM12_Y895]	0.715
RTLTHYKSAVK [ASNS_Y555]	0.35
EWKQNYEESQS [MYH7_Y1460_K1459N]	0.481
SSPQLYLVPFL [TAF4_Y652_P651L]	0.7
REVPVYTFSEP [FAM120B_Y368_D370Y_YF]	11.5
VDGSVYKLHPS [GCK_Y413]	2.64

Sequence	phosphorylation enrichment
QRTMKYTTATG [MCCC1_Y41]	0.475
IALSKYGRVKR [FGF6_Y186]	0.358
KFEDVYVRICL [B3GALNT1_Y269_G271R]	0.452
KIEGIYARDET [RPL35A_Y34_V33I]	1.07
NHRNQYQALKP [CLSPN_Y887]	0.335
IGMLIYFARKA [VCAM1_Y718_I716L]	0.453
VKANTYENFWP [GATM_Y100_K102N_YF]	3.61
NTFEKYLGEEF [TF_Y669_YF]	0.454
PDGHEYIYVDP [PDGFRA_Y572]	1.32
PGPQSYPIVTG [PAX5_Y299]	0.68
GDAMLYFPSVS [GPR143_Y177_A173D_YF]	0.55
KTDKKYLMIEE [BAG3_Y451]	0.477
DKEKWYPLGNS [PIK3C2G_Y1438]	0.366
NFSKMYCNPDA [KNL1_Y489_A486S_YF]	0.486
NTGDDYDLFGG [PTPN11_Y63_Y62D_YF]	0.722
HLQDEYDFKCK [STAT1_Y170_D165H]	0.631
